Reference: publication PMC9916421

Molecular target: DrMoaE (MoaE of Deinococcus radiodurans, large subunit of MPT synthase) (Deinococcus radiodurans)
Test: SEC; gel filtration profiles of DrMoaE and DrMoaER110A; standard curve from aprotinin, RNaseA, chymotrypsinogen A, ovalbumin and BSA

stoichiometry N: 2
Substance: DrMoaE (MoaE of Deinococcus radiodurans, large subunit of MPT synthase) (natural protein)
